From US9675707B2, “Anti-TAT226 antibodies and immunoconjugates” (GENENTECH, INC., priority 2006, dated 2017)
Substitutions are numbered along the chain they refer to. Where a SMILES comes first, the peptide text is derived from it. [ ]: non-standard residue; d: D form. The star is where a group is joined. Dolaproine = CO[C@@H]([C@@H]1CCCN1)[C@@H](C)C(=O)O; Dil = CC[C@H](C)[C@H](NC)[C@@H](CC(=O)O)OC; X1 = C[C@@H](N*)[C@@H](O)c1ccccc1; NMeV = CN[C@H](C(=O)O)C(C)C

T1: TAT226 expressed on the surface of OVCAR3 (Homo sapiens, UniProt Q8N2G4)
T1 construct: TAT226 expressed on the surface of OVCAR3, a human ovarian cancer cell line; endogenous in cells; host or cells: OVCAR3
T1 sequence (Q8N2G4 21-117): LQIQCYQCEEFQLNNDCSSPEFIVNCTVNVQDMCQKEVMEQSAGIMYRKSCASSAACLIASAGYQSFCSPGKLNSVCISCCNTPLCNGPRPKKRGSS

T2: TAT226-His (Homo sapiens, UniProt Q8N2G4)
T2 construct: polyhistidine (C); made in house
T2 sequence (Q8N2G4 21-115): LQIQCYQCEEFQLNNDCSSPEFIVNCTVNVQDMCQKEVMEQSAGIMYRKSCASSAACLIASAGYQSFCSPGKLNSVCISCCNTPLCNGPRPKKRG

B1: YWO.49.B7: affinity matured anti-TAT226 antibody derived from YWO.49, reformatted as full-length IgG (antibody, V domains shown)
VH: EVQLVESGGGLVQPGGSLRLSCAASGFTITNYGIHWVRQAPGKGLEWVGRIYPDSGATYYADSVKGRFTISADTSKNTAYLQMNSLRAEDTAVYYCARKLWVSLAAMDYWGQGTLVTVSS
VL: DIQMTQSPSSLSASVGDRVTITCRASQDVSTAVAWYQQKPGKAPKLLIYSASFLYSGVPSRFSGSGSGTDFTLTISSLQPEDFATYYCQRSVFTPPAFGQGTKVEIKR
B2: YWO.49.H2: affinity matured anti-TAT226 antibody derived from YWO.49, reformatted as full-length IgG (antibody, V domains shown)
VH: B1 VH with A106P
VL: B1 VL with R90Q, V92Y, F93G, P96F, A97I
B3: YWO.49.H6: affinity matured anti-TAT226 antibody derived from YWO.49, reformatted as full-length IgG (antibody, V domains shown)
VH: B1 VH with V102I, L104I, A106G
VL: B1 VL with R90H, V92Y, F93A, P96F, A97T
B4: YWO.49.C9: affinity matured anti-TAT226 antibody derived from YWO.49, reformatted as full-length IgG (antibody, V domains shown)
VH: B1 VH with S103T, A106S
VL: B1 VL with R90K, V92Y, F93N, A97T

Assays:
HCT116#9-4 cells = experiment: In vitro cell killing assay using HCT116 transfected cells (CellTiter-Glo); format: cell-based, human; settings: 3 days of incubation
Protocol: (§1) YWO.49.H2 and YWO.49.H6 ADCs were tested for the ability to inhibit proliferation of HCT116 cells, a colon cancer cell line, which had been stably transfected with nucleic acid encoding human TAT226. Untransfected HCT116 cells are normally about 5-6 fold less sensitive to free (unconjugated) MMAE than OVCAR3 cells.
Briefly, HCT116 cells were transfected as follows. Nucleic acid encoding epitope-tagged human TAT226 was constructed in the mammalian expression vector pcDNA3.1 (Invitrogen, Carlsbad, Calif.). The epitope tag consisted of amino acids 1-53 of the herpes simplex virus type 1 glycoprotein D (the “gD” tag), which replaced the signal sequence from amino acids 1-22 at the N-terminus of human TAT226. The recombinant vector was transfected into HCT116 cells using Lipofectamine200 (Invitrogen) according to the manufacturer's protocol. Transfected HCT116 cells were cultured in McCoy's 5a medium with 10% FBS and 0.4 mg/ml G418. Cells were stained using anti-gD antibodies and sorted by FACS to select for individual clones expressing recombinant gD:human TAT226 fusion protein. […]
To perform the cell killing assay, HCT116#9-4 cells were seeded in 96-well plates. […] After 3 days of incubation, cell viability was measured using the CellTiter-Glo™ Luminescent Cell Viability Assay (Promega, Madison, Wis.) according to the manufacturer's instructions.

OVCAR3 cells = experiment: OVCAR3 in vitro cell killing assay (CellTiter-Glo); format: cell-based, human; settings: 5 days of incubation
Protocol: YWO.49.H2 and YWO.49.H6 ADCs were tested for the ability to inhibit proliferation of OVCAR3 cells. OVCAR3 cells were seeded in 96-well plates in RPMI with 20% FBS. Anti-MUC16/CA25 antibody conjugated to MC-vc-PAB-MMAE was used as a positive control. MUC16/CA25 is a known ovarian cancer antigen. See, e.g., Yin et al. (2001) J. Biol. Chem. 276:27371-27375. Anti-IL-8 antibody conjugated to MC-vc-PAB-MMAE was used as a negative control. After 5 days of incubation, cell viability was measured using the CellTiter-Glo™ Luminescent Cell Viability Assay (Promega, Madison, Wis.) according to the manufacturer's instructions. The scale on the y-axis of FIG. 17 indicates the relative light units, or “RLUs,” from luciferase luminescence, which is a measure of cell viability.

[1] = system: Untransfected HCT116 cells; experiment: Sensitivity of untransfected HCT116 cells to free MMAE; format: cell-based, human; settings: untransfected HCT116 cells versus OVCAR3 cells
Protocol: as §1

[2] = target: T1, TAT226 expressed on the surface of OVCAR3; experiment: FACS binding to TAT226 expressed on the surface of OVCAR3 cells; settings: 5 μg/ml primary antibody, 1 hour on ice
Protocol: The ability of anti-TAT226 antibodies to bind to TAT226 expressed on the surface of OVCAR3, a human ovarian cancer cell line, was examined. Fluorescence-activated cell sorting (FACS) was performed on OVCAR3 cells in the absence and in the presence of YWO.49, YWO.49.B7, YWO.49.C9, YWO.49.H2, or YWO.49.H6. Briefly, detached cells were incubated with 5 μg/ml primary antibody for 1 hour on ice, washed, and incubated with secondary antibody (anti-human IgG conjugated to phycoerythrin) for 30 minutes on ice. FACS was performed using a FACScan™ flow cytometer (BD Biosciences, San Jose, Calif.).
The peaks on the left side of each graph represent “background” binding, i.e., binding of secondary antibody only. The peaks on the right side of each graph represent binding of the indicated anti-TAT226 antibody.

TAT226-His = target: T2, TAT226-His; experiment: Binding affinity for recombinant antigen by surface plasmon resonance (BIACORE 3000); settings: immobilized antibody, TAT226-His 0.7 nM to 500 nM, 25° C., one-to-one Langmuir model; for kon/10^5: association rate; for koff/10^−4: dissociation rate
Protocol: The binding affinity of YWO.49, YWO.49.B7, YWO.49.C9, YWO.49.H2, and YWO.49.H6 for recombinant antigen was determined by surface plasmon resonance measurement using a BIACORE® 3000 system (Biacore, Inc., Piscataway, N.J.). Briefly, carboxymethylated dextran biosensor chips (CMS, Biacore Inc.) were activated with N-ethyl-N′-(3-dimethylaminopropyl)-carbodiimide hydrochloride (EDC) and N-hydroxysuccinimide (NHS) according to the supplier's instructions. Anti-TAT226 antibody was diluted to 5 ug/ml with 10 mM sodium acetate, pH 4.8, before injection at a flow rate of 5 ul/minute to achieve approximately 500 response units (RU) of coupled antibody. Next, 1M ethanolamine was injected to block unreacted groups. For kinetics measurements, two-fold serial dilutions of TAT226-His (0.7 nM to 500 nM) were injected in PBS with 0.05% Tween 20 at 25° C. at a flow rate of 25 μl/min. Association rates (kon) and dissociation rates (koff) were calculated using a simple one-to-one Langmuir binding model (BIAevaluation Software version 3.2). The equilibrium dissociation constant (Kd) was calculated as the ratio koff/kon.

| Molecule | IC50 (HCT116#9-4 cells) [nM] | IC50 (OVCAR3 cells) [nM] | fold less sensitive than OVCAR3 cells [1] | binding to OVCAR3 cells by FACS [2] | kon/10^5 (TAT226-His) | koff/10^−4 (TAT226-His) |
| --- | --- | --- | --- | --- | --- | --- |
| CC[C@H](C)[C@@H]([C@@H](CC(=O)N1CCC[C@H]1[C@H](OC)[C@@H](C)C(=O)N[C@H](C)[C@@H](O)c1ccccc1)OC)N(C)C(=O)[C@@H](NC(=O)[C@@H](NC)C(C)C)C(C)C [free MMAE, mono-methyl auristatin E] (H-[NMeV]V[Dil][Dolaproine]-X1) | ~0.9 | ~0.1 | 5-6 fold |  |  |  |
| B1 |  |  |  | did not bind significantly | 0.27 | <0.05 |
| B2 |  |  |  |  | 0.22 |  |
| B3 |  |  |  |  | 1.86 | 0.09 |
| B4 |  |  |  | comparable to that observed for YWO.49.H2 and YWO.H6 | 1.53 | <0.05 |
